Results on 14 molecules are retold here after patent US20250277029A1 (Amgen, published 2025).

Positions count from the first letter of the chain named.

This experiment deals with human cannabinoid receptor 1 (huCB1), full length, expressed on cells (human, UniProt P21554 1-472). As to the kind of experiment: cell-based or functional assay.
human cannabinoid receptor 1 (huCB1), full length, expressed on cells, sequence (P21554 whole entry): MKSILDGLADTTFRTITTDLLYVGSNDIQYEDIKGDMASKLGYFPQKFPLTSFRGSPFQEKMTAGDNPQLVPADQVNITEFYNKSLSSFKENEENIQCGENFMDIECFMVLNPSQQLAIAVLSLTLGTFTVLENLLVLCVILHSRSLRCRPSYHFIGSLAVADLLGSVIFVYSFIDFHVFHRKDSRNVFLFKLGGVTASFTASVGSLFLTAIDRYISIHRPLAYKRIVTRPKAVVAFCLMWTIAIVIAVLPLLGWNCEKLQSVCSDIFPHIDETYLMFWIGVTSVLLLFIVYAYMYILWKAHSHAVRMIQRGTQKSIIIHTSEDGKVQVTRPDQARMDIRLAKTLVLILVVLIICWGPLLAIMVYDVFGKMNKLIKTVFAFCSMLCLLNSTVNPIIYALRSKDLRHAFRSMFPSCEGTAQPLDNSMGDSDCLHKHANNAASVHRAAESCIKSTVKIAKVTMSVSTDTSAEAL

B1: LIBC523844-1 (antibody, V domains shown)
VH: QVQLQESGPGLVKPSQTLSLTCTVSGGSIRRGGDYWSWIRQHPGKGLEWIGHVYYTGSTKYNPSFKDRATISVNTYKNQFSLKLSSVTAADTAVYYCARDYDILTGYSYYYYGMDVWGQGTTVTVSS
VL: DIVMTQSPLSLPVTPGEPASISCRSSQSLLSSSGANYVDWYLQKPGQSPQLLIYQGSNRASGVPDRFSGSGSGTDFTLKISRVEAEDVGVYYCRQARALPRTFGQGTKVEIKR
Consider B1, for which the “Mean IC50 (nM), cAMP antagonist assay” value was 3.83 nM; the “Mean IC50, -fold vs Rimo” value is 1.28 fold vs Rimonabant; the “n = 1 IC50 (nM), cAMP antagonist assay” value was found to be 6.2 nM; the “n = 1 IC50, -fold vs Rimo” value worked out at 1.47 fold vs Rimonabant. The “n = 2 IC50 (nM), cAMP antagonist assay” value stood at 1.46 nM and the “n = 2 IC50, -fold vs Rimo” value stood at 0.82 fold vs Rimonabant.

B2: LIBC523760-1 (antibody, V domains shown)
VH: B1 VH with Y55Q, S64K, D67G
VL: B1 VL with S31T, Q55L, R97V, A98G, L99T
As for B2, the “Mean IC50 (nM), cAMP antagonist assay” value is 4.28 nM; the “Mean IC50, -fold vs Rimo” value is 1.43 fold vs Rimonabant; the “n = 1 IC50 (nM), cAMP antagonist assay” value came out at 6.12 nM; the “n = 1 IC50, -fold vs Rimo” value turned out to be 1.45 fold vs Rimonabant. For the same molecule, the “n = 2 IC50 (nM), cAMP antagonist assay” value was 2.44 nM and the “n = 2 IC50, -fold vs Rimo” value stood at 1.36 fold vs Rimonabant.

B3: LIBC523748-1 (antibody, V domains shown)
VH: B1 VH with K66E, D67G, N74K
VL: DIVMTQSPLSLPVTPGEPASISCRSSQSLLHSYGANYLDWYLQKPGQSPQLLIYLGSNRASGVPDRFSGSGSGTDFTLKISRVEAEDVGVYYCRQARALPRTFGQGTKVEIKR
In the case of B3, the “Mean IC50 (nM), cAMP antagonist assay” value turned out to be 7 nM; the “Mean IC50, -fold vs Rimo” value came to 2.33 fold vs Rimonabant; the “n = 1 IC50 (nM), cAMP antagonist assay” value was 9.57 nM; the “n = 1 IC50, -fold vs Rimo” value turned out to be 2.27 fold vs Rimonabant. The “n = 2 IC50 (nM), cAMP antagonist assay” value worked out at 4.43 nM and the “n = 2 IC50, -fold vs Rimo” value amounted to 2.48 fold vs Rimonabant.

B4: LIBC523969-1 (antibody, V domains shown)
VH: B1 VH with V53I, Y55Q, S58Q, S64N, F65L, D67G
VL: B1 VL with S33T, V38L, R97V, A98G
As to B4, the “Mean IC50 (nM), cAMP antagonist assay” value stood at 3.86 nM; the “Mean IC50, -fold vs Rimo” value was 1.29 fold vs Rimonabant; the “n = 1 IC50 (nM), cAMP antagonist assay” value stood at 6.45 nM; the “n = 1 IC50, -fold vs Rimo” value amounted to 1.53 fold vs Rimonabant. In addition, the “n = 2 IC50 (nM), cAMP antagonist assay” value was determined as 1.26 nM and the “n = 2 IC50, -fold vs Rimo” value was 0.7 fold vs Rimonabant.

B5: LIBC523596-1 (antibody, V domains shown)
VH: B1 VH with Y55Q, T56S, S58Q, K60A, S64N, K66E, D100E, I103V, L104V, T105S
VL: B1 VL with S31T, A35Y, R94M, R97V, A98K, L99I
Turning to B5, the “Mean IC50 (nM), cAMP antagonist assay” value is 8.99 nM and the “n = 2 IC50 (nM), cAMP antagonist assay” value came out at 4 nM.

B6: LIBC523868-1 (antibody, V domains shown)
VH: B1 VH with T56E, K60A, K66E
VL: B1 VL with S31T, S33Y, A35I, Q55L, R94M, A98Q, L99I
Take B6: the “Mean IC50 (nM), cAMP antagonist assay” value amounted to 7.59 nM; the “Mean IC50, -fold vs Rimo” value is 2.53 fold vs Rimonabant; the “n = 1 IC50 (nM), cAMP antagonist assay” value came out at 11.9 nM; the “n = 1 IC50, -fold vs Rimo” value turned out to be 2.81 fold vs Rimonabant. Moreover, the “n = 2 IC50 (nM), cAMP antagonist assay” value was 3.32 nM and the “n = 2 IC50, -fold vs Rimo” value is 1.86 fold vs Rimonabant.

B7: LIBC523857-1 (antibody, V domains shown)
VH: B1 VH with V53I, Y55Q, S58Q, K60A, S64R, F65L, K66E, D67G
VL: B1 VL with S33T, V38L, Q55L, R97V, A98E
As to B7, the “Mean IC50 (nM), cAMP antagonist assay” value was found to be 7.94 nM; the “Mean IC50, -fold vs Rimo” value was found to be 2.65 fold vs Rimonabant; the “n = 1 IC50 (nM), cAMP antagonist assay” value is 13.4 nM; the “n = 1 IC50, -fold vs Rimo” value is 3.18 fold vs Rimonabant. The “n = 2 IC50 (nM), cAMP antagonist assay” value was found to be 2.48 nM and the “n = 2 IC50, -fold vs Rimo” value worked out at 1.39 fold vs Rimonabant.

B8: LIBC523603-1 (antibody, V domains shown)
VH: QVQLQESGPGLVKPSQTLSLTCTVSGGSIRRGGDYWAWIRQHPGKGLEWIGHVYQSGQTAYNPNFENRATISVNTYKNQFSLKLSSVTAADTAVYYCARDYDAVSGYSYYYYGMDVWGQGTTVTVSS
VL: B1 VL with S33Y, A35N, R97V, A98G
B8: the “Mean IC50 (nM), cAMP antagonist assay” value amounted to 4.72 nM; the “Mean IC50, -fold vs Rimo” value is 1.57 fold vs Rimonabant; the “n = 1 IC50 (nM), cAMP antagonist assay” value was 7.29 nM; the “n = 1 IC50, -fold vs Rimo” value came to 1.73 fold vs Rimonabant. Also, the “n = 2 IC50 (nM), cAMP antagonist assay” value was determined as 2.16 nM and the “n = 2 IC50, -fold vs Rimo” value worked out at 1.2 fold vs Rimonabant.

B9: LIBC523813-1 (antibody, V domains shown)
VH: B1 VH with S58Q, K60A, S64K, N74K
VL: B1 VL with Q55L, R94M, A98G, L99I
As to B9, the “Mean IC50 (nM), cAMP antagonist assay” value was 5.95 nM; the “Mean IC50, -fold vs Rimo” value turned out to be 1.98 fold vs Rimonabant; the “n = 1 IC50 (nM), cAMP antagonist assay” value was 8.96 nM; the “n = 1 IC50, -fold vs Rimo” value was 2.13 fold vs Rimonabant. The “n = 2 IC50 (nM), cAMP antagonist assay” value amounted to 2.94 nM and the “n = 2 IC50, -fold vs Rimo” value worked out at 1.64 fold vs Rimonabant.

B10: LIBC523670-1 (antibody, V domains shown)
VH: B8 VH with S56T, F65L, N67S, D100N, A103V, V104L
VL: B1 VL with S31T, S33Y, V38L, R94M, R97L, A98Q, L99I
As for B10, the “Mean IC50 (nM), cAMP antagonist assay” value amounted to 6.12 nM; the “Mean IC50, -fold vs Rimo” value came out at 2.04 fold vs Rimonabant; the “n = 1 IC50 (nM), cAMP antagonist assay” value was 8.72 nM; the “n = 1 IC50, -fold vs Rimo” value was determined as 2.07 fold vs Rimonabant. The “n = 2 IC50 (nM), cAMP antagonist assay” value was 3.52 nM and the “n = 2 IC50, -fold vs Rimo” value was 1.97 fold vs Rimonabant.

B11: LIBC523862-1 (antibody, V domains shown)
VH: B1 VH with V53I, Y55Q, K60A, F65L, D67G
VL: B1 VL with S31H, S33T, Q55L, R97I
B11: the “Mean IC50 (nM), cAMP antagonist assay” value is 7.31 nM; the “Mean IC50, -fold vs Rimo” value was 2.44 fold vs Rimonabant; the “n = 1 IC50 (nM), cAMP antagonist assay” value stood at 11.2 nM; the “n = 1 IC50, -fold vs Rimo” value worked out at 2.66 fold vs Rimonabant. The “n = 2 IC50 (nM), cAMP antagonist assay” value came out at 3.42 nM and the “n = 2 IC50, -fold vs Rimo” value came out at 1.91 fold vs Rimonabant.

B12: LIBC527869-1 (antibody, V domains shown)
VH: QVQLQESGPGLVKPSQTLSLTCTVSGGNIRRGGDYWAWIRQHPGKGLEWIGHIYHTGKTNYNPSFKGRATISVKTYKNQFSLKLSSVTAADTAVYYCARNYDTLSGNSYYYYGMDVWGQGTTVTVSS
VL: DIQLTQSPSTLSASVGDRVTITCRASQSISNYLNWYQQKPGKAPKLLIYAASSLHSGVPSRFSGSGSGTDFTLTISSLQPEDFASYYCQQYQSYPLTFGQGTKVEIKR
As for B12, the “Mean IC50 (nM), cAMP antagonist assay” value stood at 47 nM; the “Mean IC50, -fold vs Rimo” value was 15.7 fold vs Rimonabant; the “n = 1 IC50 (nM), cAMP antagonist assay” value came out at 57.8 nM; the “n = 1 IC50, -fold vs Rimo” value is 13.7 fold vs Rimonabant. Moreover, the “n = 2 IC50 (nM), cAMP antagonist assay” value is 36.2 nM and the “n = 2 IC50, -fold vs Rimo” value was 20.2 fold vs Rimonabant.

B13: LIBC527984-1 (antibody, V domains shown)
VH: B1 VH with V53I, Y55Q, S58K, K60N, S64N, D67S
VL: B12 VL with L4M
For the molecule B13, the “Mean IC50 (nM), cAMP antagonist assay” value is 4.25 nM; the “Mean IC50, -fold vs Rimo” value was determined as 1.42 fold vs Rimonabant; the “n = 1 IC50 (nM), cAMP antagonist assay” value is 7.24 nM; the “n = 1 IC50, -fold vs Rimo” value was 1.72 fold vs Rimonabant. For the same molecule, the “n = 2 IC50 (nM), cAMP antagonist assay” value is 1.27 nM and the “n = 2 IC50, -fold vs Rimo” value was found to be 0.71 fold vs Rimonabant.

B14: LIBC527879-1 (antibody, V domains shown)
VH: B1 VH with S37G, V53I, Y55Q, T56S, K60N, S64K, F65L, D67S, N74D, L104F
VL: B12 VL with T10S, S30I, N31S, H55R, S85T, Q92S, S93N, Q100G, K103R
As for B14, the “Mean IC50 (nM), cAMP antagonist assay” value is 3.95 nM; the “Mean IC50, -fold vs Rimo” value is 1.32 fold vs Rimonabant; the “n = 1 IC50 (nM), cAMP antagonist assay” value was 6.12 nM; the “n = 1 IC50, -fold vs Rimo” value was found to be 1.45 fold vs Rimonabant. In addition, the “n = 2 IC50 (nM), cAMP antagonist assay” value is 1.78 nM and the “n = 2 IC50, -fold vs Rimo” value was 0.99 fold vs Rimonabant.
